Measurements as given in patent publication US5866124.

Target: murine anti-HMW-MAA monoclonal antibody 763.74
Test: ELISA on plates coated with MAb 763.74, culture supernatant, detected with alkaline phosphatase-conjugated anti-human γ

B1: chimeric antiidiotypic monoclonal antibody MK2-CHγ1 (antibody, V domains shown)
VH: LQESGGGLVQPGGSRKLSCAASGFTFSSFGMHWVRQAPEKGLEWVAYISSDSSNIYYADTVKGRFTISRDNPKNTLFLQMTSLRSEDTAMYYCARSNYVGYHVRWYFDVWGQGTTVT
VL: QLTQSPASLAVSLGQRVTISCRASESVEYYGSSLMQWYQQKPGQPPKLLIYAASNVESGVPARFSGSGSGTDFSLNIHPVEEDDIAMYFCQQSRKIPYTFGGGTKLEI
With B1 as the binder, how does the A405 read?
The A405 was 0.78 A405.
